Measured values as given in US12692303 (QYUNS THERAPEUTICS, dated 2026).

T1: IL-23 mutant L140P (human, UniProt Q9NPF7 20-189; P29460 23-328)
T1 construct: 293F cell supernatant
T1 chain 1: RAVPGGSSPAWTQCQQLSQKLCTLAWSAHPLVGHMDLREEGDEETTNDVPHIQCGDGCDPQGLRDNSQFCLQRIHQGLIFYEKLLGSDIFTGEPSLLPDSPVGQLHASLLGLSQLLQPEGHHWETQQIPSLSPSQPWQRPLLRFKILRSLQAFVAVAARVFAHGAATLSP
T1 chain 2: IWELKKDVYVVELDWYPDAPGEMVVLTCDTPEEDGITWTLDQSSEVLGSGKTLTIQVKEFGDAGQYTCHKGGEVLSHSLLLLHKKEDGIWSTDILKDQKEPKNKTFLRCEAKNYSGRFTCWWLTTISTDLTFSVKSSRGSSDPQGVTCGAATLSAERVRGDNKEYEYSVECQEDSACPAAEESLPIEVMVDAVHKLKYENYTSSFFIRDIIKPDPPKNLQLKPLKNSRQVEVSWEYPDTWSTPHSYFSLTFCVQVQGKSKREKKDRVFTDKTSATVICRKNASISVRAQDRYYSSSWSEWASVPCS

T2: IL-23 mutant W137A (human, UniProt Q9NPF7 20-189; P29460 23-328)
T2 construct: p19 mutant plasmid co-transfected with p40 plasmid into 293F cells; used as cell supernatant
T2 chain 1: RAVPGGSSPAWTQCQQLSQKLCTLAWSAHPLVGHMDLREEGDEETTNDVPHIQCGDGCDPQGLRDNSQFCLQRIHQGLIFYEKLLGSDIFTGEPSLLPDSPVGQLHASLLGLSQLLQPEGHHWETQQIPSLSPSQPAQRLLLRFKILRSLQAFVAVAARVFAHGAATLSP
T2 chain 2: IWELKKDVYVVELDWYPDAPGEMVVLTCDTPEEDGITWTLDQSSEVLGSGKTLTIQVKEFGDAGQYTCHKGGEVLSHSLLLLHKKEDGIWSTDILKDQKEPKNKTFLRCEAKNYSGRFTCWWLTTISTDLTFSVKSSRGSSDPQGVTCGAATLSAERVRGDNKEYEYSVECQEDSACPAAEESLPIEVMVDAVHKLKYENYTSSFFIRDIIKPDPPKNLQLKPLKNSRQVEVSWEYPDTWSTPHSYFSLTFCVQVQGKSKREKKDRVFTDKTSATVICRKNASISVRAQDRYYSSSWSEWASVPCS

T3: IL-23 mutant F144S (human, UniProt Q9NPF7 20-189; P29460 23-328)
T3 construct: 293F cell supernatant
T3 chain 1: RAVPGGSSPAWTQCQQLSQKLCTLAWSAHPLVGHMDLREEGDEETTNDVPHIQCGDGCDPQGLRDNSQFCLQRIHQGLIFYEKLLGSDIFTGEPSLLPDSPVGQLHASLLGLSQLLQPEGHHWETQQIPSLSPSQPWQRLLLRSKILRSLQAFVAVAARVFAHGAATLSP
T3 chain 2: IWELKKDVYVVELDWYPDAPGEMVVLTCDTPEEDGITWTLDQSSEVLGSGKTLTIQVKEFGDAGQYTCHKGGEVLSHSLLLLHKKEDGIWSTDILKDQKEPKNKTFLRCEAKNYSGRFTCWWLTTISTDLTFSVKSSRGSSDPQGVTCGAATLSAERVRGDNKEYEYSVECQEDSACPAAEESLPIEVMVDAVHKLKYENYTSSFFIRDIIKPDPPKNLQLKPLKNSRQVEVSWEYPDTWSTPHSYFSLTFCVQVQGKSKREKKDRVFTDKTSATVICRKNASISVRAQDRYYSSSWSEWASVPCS

T4: IL-23 mutant R143A (human, UniProt Q9NPF7 20-189; P29460 23-328)
T4 construct: 293F cell supernatant
T4 chain 1: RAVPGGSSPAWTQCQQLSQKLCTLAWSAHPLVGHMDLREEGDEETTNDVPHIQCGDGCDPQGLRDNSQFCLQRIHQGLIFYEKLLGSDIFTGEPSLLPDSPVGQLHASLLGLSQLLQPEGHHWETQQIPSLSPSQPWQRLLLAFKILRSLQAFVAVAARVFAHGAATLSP
T4 chain 2: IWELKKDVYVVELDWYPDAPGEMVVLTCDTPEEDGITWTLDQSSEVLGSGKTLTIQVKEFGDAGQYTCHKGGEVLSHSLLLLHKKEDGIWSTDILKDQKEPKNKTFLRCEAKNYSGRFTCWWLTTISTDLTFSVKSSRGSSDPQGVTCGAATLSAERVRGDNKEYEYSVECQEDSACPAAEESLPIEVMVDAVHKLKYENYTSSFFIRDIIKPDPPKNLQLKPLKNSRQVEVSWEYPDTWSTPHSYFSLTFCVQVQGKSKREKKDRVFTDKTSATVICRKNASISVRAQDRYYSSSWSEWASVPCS

T5: IL-23 mutant W137D (human, UniProt Q9NPF7 20-189; P29460 23-328)
T5 construct: 293F cell supernatant
T5 chain 1: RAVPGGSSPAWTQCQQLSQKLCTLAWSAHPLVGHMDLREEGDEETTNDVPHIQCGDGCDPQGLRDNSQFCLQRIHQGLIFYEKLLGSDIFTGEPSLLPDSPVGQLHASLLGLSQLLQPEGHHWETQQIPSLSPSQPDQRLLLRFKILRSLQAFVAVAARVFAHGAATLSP
T5 chain 2: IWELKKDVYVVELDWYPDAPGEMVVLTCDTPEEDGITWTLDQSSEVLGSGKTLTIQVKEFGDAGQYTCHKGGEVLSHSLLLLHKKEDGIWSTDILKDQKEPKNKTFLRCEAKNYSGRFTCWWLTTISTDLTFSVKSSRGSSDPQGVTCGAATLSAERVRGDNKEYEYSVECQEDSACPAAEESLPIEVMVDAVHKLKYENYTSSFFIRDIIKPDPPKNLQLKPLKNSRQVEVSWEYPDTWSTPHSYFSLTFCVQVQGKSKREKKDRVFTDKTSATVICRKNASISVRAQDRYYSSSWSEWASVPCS

T6: Natural IL-23 (human, UniProt Q9NPF7 20-189; P29460 23-328)
T6 construct: It was detected with an anti-His antibody, so it carries a His tag
T6 sequence 1: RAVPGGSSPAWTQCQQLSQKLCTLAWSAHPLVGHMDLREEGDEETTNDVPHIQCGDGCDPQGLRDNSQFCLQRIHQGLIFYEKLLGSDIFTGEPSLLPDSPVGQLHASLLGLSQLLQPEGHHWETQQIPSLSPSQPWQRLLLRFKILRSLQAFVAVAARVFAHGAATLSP
T6 sequence 2: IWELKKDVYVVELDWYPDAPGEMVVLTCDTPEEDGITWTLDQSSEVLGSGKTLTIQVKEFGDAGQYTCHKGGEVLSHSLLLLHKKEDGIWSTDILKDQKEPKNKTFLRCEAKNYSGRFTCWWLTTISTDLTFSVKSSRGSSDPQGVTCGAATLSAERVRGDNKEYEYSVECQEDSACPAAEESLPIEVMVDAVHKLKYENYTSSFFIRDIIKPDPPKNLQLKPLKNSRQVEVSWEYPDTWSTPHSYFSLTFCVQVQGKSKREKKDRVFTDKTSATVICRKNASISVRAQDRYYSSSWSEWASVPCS

T7: IL-23-p40 (human, UniProt P29460 23-328)
T7 construct: also called p40 subunit of IL-23; IL-12/IL-23p40
T7 sequence: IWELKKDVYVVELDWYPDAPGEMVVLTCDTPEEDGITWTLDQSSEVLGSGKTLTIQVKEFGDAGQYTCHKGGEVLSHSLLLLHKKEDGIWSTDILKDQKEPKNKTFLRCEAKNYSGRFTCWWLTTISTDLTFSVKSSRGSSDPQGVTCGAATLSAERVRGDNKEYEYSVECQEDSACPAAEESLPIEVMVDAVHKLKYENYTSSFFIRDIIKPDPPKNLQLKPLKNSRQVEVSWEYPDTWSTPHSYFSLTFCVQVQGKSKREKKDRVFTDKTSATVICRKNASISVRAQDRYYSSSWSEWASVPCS

T8: Human interleukin 23 (hIL-23) (human, UniProt Q9NPF7 20-189; P29460 23-328)
T8 construct: Heterodimer of p19 and p40; bought (Shanghai Novoprotein); also called human IL-23
T8 sequence 1: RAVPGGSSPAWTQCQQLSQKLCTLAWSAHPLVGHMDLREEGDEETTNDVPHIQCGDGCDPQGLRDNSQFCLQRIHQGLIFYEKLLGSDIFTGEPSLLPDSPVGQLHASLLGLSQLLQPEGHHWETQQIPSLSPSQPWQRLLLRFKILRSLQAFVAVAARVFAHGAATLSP
T8 sequence 2: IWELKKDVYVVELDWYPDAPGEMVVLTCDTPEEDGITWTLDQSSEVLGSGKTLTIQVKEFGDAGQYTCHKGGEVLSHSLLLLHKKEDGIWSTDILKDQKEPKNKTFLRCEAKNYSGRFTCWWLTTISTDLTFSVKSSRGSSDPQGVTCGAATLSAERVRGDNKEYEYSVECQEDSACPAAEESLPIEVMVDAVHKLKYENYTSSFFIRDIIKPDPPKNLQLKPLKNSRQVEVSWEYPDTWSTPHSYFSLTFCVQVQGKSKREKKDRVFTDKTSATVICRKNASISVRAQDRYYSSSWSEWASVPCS

B1: Risankizumab (antibody, V domains shown)
VH: QVQLVQSGAEVKKPGSSVKVSCKASGYTFTDQTIHWMRQAPGQGLEWIGYIYPRDDSPKYNENFKGKVTITADKSTSTAYMELSSLRSEDTAVYYCAIPDRSGYAWFIYWGQGTLVTVSS
VL: DIQMTQSPSSLSASVGDRVTITCKASRDVAIAVAWYQQKPGKVPKLLIYWASTRHTGVPSRFSGSGSRTDFTLTISSLQPEDVADYFCHQYSSYPFTFGSGTKLEIKR
B2: QX004N (HZD90-32) (antibody, human IgG1, kappa, V domains shown)
VH: EVQLVESGGGLVQPGGSLRLSCAASGFSLSNHEMSWVRQAPGKGLEWIGIITTSDTTYYATWAKGRFTISRDNSKNTLYLQMNSLRAEDTAVYYCARVDIVLLSVTSRIWGQGTLVTVSS
VL: DVVMTQSPSSLSASVGDRVTITCQASQSVSTYLSWYQQKPGKAPKLLIYGASNLESGVPSRFSGSGSGTDFTLTISSLQPEDFATYYCQSGYVFAGLTFGGGTKVEIKR
notes: Expressed in ExpiCHO-S cells, purified on Protein A; also called humanized clone 90#; 90VH-Hu18/90VK-Hu9

Tests used:
IL-23 mutant L140P [1] = biological target: T1, IL-23 mutant L140P; experiment: binding ELISA, antibody coated at 1 µg/ml, IL-23 mutant supernatant titrated, anti-His detection
Protocol: (§1) Mutation primers were designed through PCR method. The p19 mutant plasmid was co-transfected with p40 plasmid into 293F cells to prepare a cell supernatant containing the IL-23 mutant.
(§2) After blocking, a series of cell supernatant dilutions of IL-23 mutant diluted to a concentration ranging from 0 to 0.5 μg/ml for incubation. Then, Biotin labeled anti-His antibody and SA-HRP were added respectively for incubation, finally the substrate was added for color development, and the termination solution was added to terminate the color reaction. After termination, the ELISA plate was placed in a microplate reader to read the absorption value at 450 nm (the absorption values at 650 nm was taken as reference), and the dose effect curve was plotted and the $EC50$ value was calculated.

IL-23 mutant W137A = biological target: T2, IL-23 mutant W137A; experiment: as above
Protocol: as §1, §2

IL-23 mutant F144S [2] = biological target: T3, IL-23 mutant F144S; experiment: as above
Protocol: as §1, §2

IL-23 mutant R143A = biological target: T4, IL-23 mutant R143A; experiment: as above
Protocol: as §1, §2

IL-23 mutant W137D = biological target: T5, IL-23 mutant W137D; experiment: as above
Protocol: as §1, §2

IL-23 mutant L140P [3] = biological target: T1, IL-23 mutant L140P; experiment: binding ELISA, antibody coated at 1 µg/ml, IL-23 mutant supernatant titrated; N.D: the binding is weak, and the EC50 value is not accurate
Protocol: as §1, §2

IL-23 mutant F144S [4] = biological target: T3, IL-23 mutant F144S; experiment: as above
Protocol: as §1, §2

Natural IL-23 = biological target: T6, Natural IL-23; experiment: binding ELISA, antibody coated at 1 µg/ml, IL-23 titrated, anti-His detection
IL-23-p40 = biological target: T7, IL-23-p40; experiment: Binding ELISA: IL-23-p40 coated at 2 ug/ml, goat anti-human IgG secondary antibody, OD450 (reference 650 nm)
Protocol: IL-23-p40 was diluted to 2 μg/ml, added to the ELISA plate, and coated overnight at 4° C. After blocking, a series of antibody dilutions diluted to a concentration ranging from 0 to 5 μg/ml and Goat-anti-human IgG secondary antibody were added respectively for incubation, finally substrate was added for color development, and the termination solution was added to terminate the color reaction. After termination, the ELISA plate was placed in a microplate reader to read the absorption value at 450 nm (the absorption value at 650 nm was taken as reference), and the dose effect curve was plotted to analyze the binding specificity of the antibody.

[5] = biological target: T8, Human interleukin 23 (hIL-23); experiment: SPR, Biacore T200, antibody captured on Protein A chip, IL-23 in flow, 25 °C, 1:1 model
Protocol: Commercialized Protein A chip was used to immobilize an appropriate amount of antibody by capture method, the Rmax was about 50 RU and the capture flow rate was 10 μl/min. The antigen was diluted by gradient, and the flow rate of the instrument was switched to 30 μl/min. The diluted antigen flowed through the reference channel and the channel of immobilized antibody in sequence from low to high concentration, and flowed through the buffer as negative control. The chip was regenerated with glycine at pH 1.5 after each binding and dissociation. Fitting was performed with the 1:1 binding model in the Kinetics option using the build-in software in the instrument, and the association rate constant k_a, dissociation rate constant […] and equilibrium dissociation constant K_D of the antibody were calculated.

[6] = biological target: T8, Human interleukin 23 (hIL-23); experiment: cell-based or functional assay

| EC50 (IL-23 mutant L140P [1]) | EC50 (IL-23 mutant W137A) | EC50 (IL-23 mutant F144S [2]) | EC50 (IL-23 mutant R143A) | EC50 (IL-23 mutant W137D) | binding result (IL-23 mutant L140P [3]) | binding result (IL-23 mutant F144S [4]) | EC50 (Natural IL-23) | binding result (IL-23-p40) | Kd [5] | koff [5] | kon [5] | IC50, inhibition of phosphorylation of STAT3 in HEK Blue IL-23 cells induced by IL-23 [6] | IC50, inhibition of release of IFN-γ from human NK cells induced by IL-23 [6] | IC50, inhibition of release of IL-17A from mouse spleen cells induced by IL-23 [6] | Binder |
| --- | --- | --- | --- | --- | --- | --- | --- | --- | --- | --- | --- | --- | --- | --- | --- |
| 0.0544 µg/mL | 0.0023 µg/mL | 0.0101 µg/mL | 0.307 µg/mL | 0.0052 µg/mL | – | – | – | – | – | – | – | – | – | – | B1 |
| – | 0.0501 µg/mL | – | 0.0034 µg/mL | 0.363 µg/mL | binds | binds | 0.0017 µg/mL | no binding | 101 pM | 3.5e-05 s⁻¹ | 366000 M⁻¹ s⁻¹ | 0.00321 µg/mL | 0.0104 µg/mL | 0.0117 µg/mL | B2 |
